Laboratory results from patent publication US20070207154A1, “METHOD OF MODULATING VASCULARIZATION” (priority 2004, published 2007).

Tested on: sprouting from wild-type, TFΔCT and PAR-2-deficient aortas
Test: ex vivo angiogenesis assay (aortic ring sprouting in Matrigel)
Assay type: cell-based, mouse
Conditions: wild-type and TFΔCT aortas, EGM without serum, day 4; growth factors 20 ng/ml, VIIa 50 nM (FIG. 2c)
Experimental: Angiogenesis assays. The ex vivo angiogenesis assay was adopted from the rat aortic sprouting model described by Masson et al. Biol. Proced. […] Thoracic aortas from 8-11 week old wild-type, TFΔCT, PAR-2-deficient, and TFΔCT/PAR-2-deficient mice of either sex were embedded in Matrigel, and overlaid with EGM supplemented with 5% serum, growth factors, or inhibitors at the following concentrations: VEGF, bFGF, and PDGF: 20 ng/ml; hirudin: 500 nM, VIIai: […], NAPc2: […], NAP5: 1 μM, VIIa: 50 nM. In most cases, the number of aortic sprouts was determined at day 3 and 4 without knowledge of the genotype. Aortic ring RNA was isolated by Trizol (Invitrogen) extraction using standard procedures, digested with DNAaseI, followed by RT-PCR for β-actin and TF. […] Tests used 2 different virus doses, referred to as high (1.1×10^10 virus particles/ml) and low (5×10^9 particles/ml). For confocal fluorescence microscopy, aortic pieces with a minimum of surrounding Matrigel were fixed with 4% paraformaldehyde and methanol, incubated with primary and secondary antibodies (24 hours each), and mounted in anti-fade medium (Vector laboratories). Alternatively, cryosections of OCT-embedded aortas were fixed with acetone and stained as described above.

B1: PDGF-BB: platelet-derived growth factor BB, activates PDGF receptor β (protein, UniProt P01127 82-190, looked up)
Platelet-derived growth …: SLGSLTIAEPAMIAECKTRTEVFEISRRLIDRTNANFLVWPPCVEVQRCSGCCNNRNVQCRPTQVQLRPVQVRKIEIVRKKPIFKKATVTLEDHLACKCETVAAARPVT
modifications: BB homodimer
B1 was tested, and the “sprouting induced by single factor replacing serum” value was “None of these factors promoted substantial sprouting”.
